From article PMC4066673

Substrate: CCCCCCCCCCCCCC(=O)SCCNC(=O)CCNC(=O)[C@H](O)C(C)(C)COP(=O)(O)OP(=O)(O)OC[C@H]1O[C@@H](n2cnc3c(N)ncnc32)[C@H](O)[C@@H]1OP(=O)(O)O
Experiment: purified protein
Conditions: pH 7.5; 25.0 °C

B1: hTHEM4 (Homo sapiens) (protein)
chain: SSEEVILKDCSVPNPSWNKDLRLLFDQFMKKCEDGSWKRLPSYKRTPTEWIQDFKTHFLDPKLMKEEQMSQAQLFTRSFDDGLGFEYVMFYNDIEKRMVCLFQGGPYLEGPPGFIHGGAIATMIDATVGMCAMMAGGIVMTANLNINYKRPIPLCSVVMINSQLDKVEGRKFFVSCNVQSVDEKTLYSEATSLFIKLNPAKSLT
kcat/Km: 1.7e+06 M⁻¹ s⁻¹
